Each block holds one binder with its values, some of them ahead of it.
Key:
Assay in all cases: holdup assay
Parameters in all cases: key: below the threshold = too weak to quantify, mostly under pKd 3.1 to 4
Conditions in all cases: plain residues with an end cap or a label only (N-terminal biotin on a linker: ado-ado)
AHNAK1, Q09666 = molecular target: AHNAK1, Q09666
APBA2_1, Q99767 = molecular target: T1, APBA2_1, Q99767
T1 sequence (Q99767 563-664, limits assumed, looked up): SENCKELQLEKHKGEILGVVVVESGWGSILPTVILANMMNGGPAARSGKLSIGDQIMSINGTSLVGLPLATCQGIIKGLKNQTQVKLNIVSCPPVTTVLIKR

ARHGEF12, Q9NZN5-2 = molecular target: ARHGEF12, Q9NZN5-2
ARHGEF12, Q9NZN5-2, sequence (Q9NZN5 other isoform, or with tags, fused parts or gaps): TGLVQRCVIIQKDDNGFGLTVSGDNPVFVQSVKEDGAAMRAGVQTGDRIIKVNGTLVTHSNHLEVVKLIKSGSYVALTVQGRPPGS

DFNB31_1, Q9P202 = molecular target: T2, DFNB31_1, Q9P202
T2 sequence (Q9P202 135-233, limits assumed, looked up): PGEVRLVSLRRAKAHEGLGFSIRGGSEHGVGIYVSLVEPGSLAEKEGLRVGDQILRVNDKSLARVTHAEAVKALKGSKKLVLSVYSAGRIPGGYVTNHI

DLG1_2, Q12959 = molecular target: DLG1_2, Q12959
DLG1_2, Q12959, sequence (Q12959 314-412): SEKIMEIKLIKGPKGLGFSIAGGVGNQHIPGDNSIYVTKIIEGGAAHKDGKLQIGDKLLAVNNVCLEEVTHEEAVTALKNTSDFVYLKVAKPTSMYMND

DLG2_3, Q15700 = molecular target: DLG2_3, Q15700
DLG4_3, P78352 = molecular target: DLG4_3, P78352
DLG4_3, P78352, sequence (P78352 306-403): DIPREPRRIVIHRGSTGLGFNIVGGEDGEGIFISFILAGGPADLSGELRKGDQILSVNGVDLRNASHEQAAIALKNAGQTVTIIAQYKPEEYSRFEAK

DVL3, Q92997 = molecular target: T3, DVL3, Q92997
T3 sequence (Q92997 244-331, limits assumed, looked up): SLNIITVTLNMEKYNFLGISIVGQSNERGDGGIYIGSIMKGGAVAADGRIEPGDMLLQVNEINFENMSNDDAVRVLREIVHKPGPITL

GRIP1_2, Q9Y3R0 = molecular target: T4, GRIP1_2, Q9Y3R0
T4 sequence (Q9Y3R0 145-248, limits assumed, looked up): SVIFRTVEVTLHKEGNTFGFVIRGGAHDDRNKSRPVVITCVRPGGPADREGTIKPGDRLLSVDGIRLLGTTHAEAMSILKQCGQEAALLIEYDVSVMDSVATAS

GRIP1_3, Q9Y3R0 = molecular target: T5, GRIP1_3, Q9Y3R0
T5 sequence (Q9Y3R0 247-346, limits assumed, looked up): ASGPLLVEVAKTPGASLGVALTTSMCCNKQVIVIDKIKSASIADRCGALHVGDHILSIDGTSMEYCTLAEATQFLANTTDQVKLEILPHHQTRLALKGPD

Inadl_10, Q8NI35 = molecular target: Inadl_10, Q8NI35
Inadl_10, Q8NI35, sequence (Q8NI35 1673-1763): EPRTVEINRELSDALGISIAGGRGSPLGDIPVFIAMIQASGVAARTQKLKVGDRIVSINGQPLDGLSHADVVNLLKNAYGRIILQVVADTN

Inadl_4, Q8NI35 = molecular target: Inadl_4, Q8NI35
Inadl_4, Q8NI35, sequence (Q8NI35 547-651): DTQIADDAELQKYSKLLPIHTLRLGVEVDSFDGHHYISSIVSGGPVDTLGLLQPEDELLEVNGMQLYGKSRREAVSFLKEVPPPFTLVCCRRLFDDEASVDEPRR

LRRC7, Q96NW7 = molecular target: T6, LRRC7, Q96NW7
T6 sequence (Q96NW7 1440-1537, limits assumed, looked up): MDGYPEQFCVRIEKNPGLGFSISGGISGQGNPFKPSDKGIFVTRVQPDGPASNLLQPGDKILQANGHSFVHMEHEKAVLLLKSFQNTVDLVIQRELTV

MAGI2_3, Q86UL8 = molecular target: MAGI2_3, Q86UL8
MAGI2_3, Q86UL8, sequence (Q86UL8 600-682): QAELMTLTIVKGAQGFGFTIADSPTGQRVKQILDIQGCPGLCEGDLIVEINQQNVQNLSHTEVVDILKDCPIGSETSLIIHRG

MAGI2_5, Q86UL8 = molecular target: MAGI2_5, Q86UL8
MAGI2_5, Q86UL8, sequence (Q86UL8 915-1017): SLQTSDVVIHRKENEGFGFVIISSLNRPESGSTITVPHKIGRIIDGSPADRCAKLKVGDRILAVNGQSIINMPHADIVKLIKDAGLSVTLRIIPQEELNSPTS

MPDZ_12, O75970 = molecular target: T7, MPDZ_12, O75970
T7 sequence (O75970 1857-1958, limits assumed, looked up): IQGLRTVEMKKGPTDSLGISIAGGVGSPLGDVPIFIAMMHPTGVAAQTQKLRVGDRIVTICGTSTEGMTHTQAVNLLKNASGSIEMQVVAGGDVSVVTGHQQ

NHERF4_2, Q86UT5 = molecular target: NHERF4_2, Q86UT5
NHERF4_2, Q86UT5, sequence (Q86UT5 220-308): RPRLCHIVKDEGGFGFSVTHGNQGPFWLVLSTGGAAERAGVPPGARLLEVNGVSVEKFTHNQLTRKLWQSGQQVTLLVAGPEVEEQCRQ

PARD3_3, Q8TEW0 = molecular target: PARD3_3, Q8TEW0
PARD3_3, Q8TEW0, sequence (Q8TEW0 582-685): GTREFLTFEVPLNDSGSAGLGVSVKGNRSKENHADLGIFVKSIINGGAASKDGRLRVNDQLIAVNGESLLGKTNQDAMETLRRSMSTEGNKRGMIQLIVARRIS

PDZRN3_1, Q9UPQ7 = molecular target: T8, PDZRN3_1, Q9UPQ7
T8 sequence (Q9UPQ7 244-349, limits assumed, looked up): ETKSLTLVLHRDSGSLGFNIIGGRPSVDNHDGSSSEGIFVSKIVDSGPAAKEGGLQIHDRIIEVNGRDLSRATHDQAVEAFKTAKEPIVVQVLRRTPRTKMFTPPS

RADIL, Q96JH8 = molecular target: T9, RADIL, Q96JH8
T9 sequence (Q96JH8 971-1071, limits assumed, looked up): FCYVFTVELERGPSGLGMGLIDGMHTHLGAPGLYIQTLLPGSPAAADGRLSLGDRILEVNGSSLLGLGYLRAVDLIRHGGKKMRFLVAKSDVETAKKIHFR

RHPN1, Q8TCX5 = molecular target: T10, RHPN1, Q8TCX5
T10 sequence (Q8TCX5 508-602, limits assumed, looked up): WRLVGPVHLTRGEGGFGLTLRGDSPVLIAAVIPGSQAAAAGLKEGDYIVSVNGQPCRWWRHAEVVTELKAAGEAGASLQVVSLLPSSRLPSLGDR

SCRIB_1, Q14160 = molecular target: SCRIB_1, Q14160
SCRIB_1, Q14160, sequence (Q14160 718-814): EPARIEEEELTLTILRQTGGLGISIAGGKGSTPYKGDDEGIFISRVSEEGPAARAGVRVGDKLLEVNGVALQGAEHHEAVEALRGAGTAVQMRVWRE

SCRIB_3, Q14160 = molecular target: SCRIB_3, Q14160
SCRIB_3, Q14160, sequence (Q14160 999-1103): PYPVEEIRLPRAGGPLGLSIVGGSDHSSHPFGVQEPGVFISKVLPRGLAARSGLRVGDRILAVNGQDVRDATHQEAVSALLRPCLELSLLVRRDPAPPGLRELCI

SNTB1, Q13884 = molecular target: T11, SNTB1, Q13884
T11 sequence (Q13884 107-205, limits assumed, looked up): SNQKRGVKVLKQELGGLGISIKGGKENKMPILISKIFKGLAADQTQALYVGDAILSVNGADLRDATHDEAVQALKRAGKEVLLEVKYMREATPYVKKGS

SNTG2, Q9NY99 = molecular target: T12, SNTG2, Q9NY99
T12 sequence (Q9NY99 68-166, limits assumed, looked up): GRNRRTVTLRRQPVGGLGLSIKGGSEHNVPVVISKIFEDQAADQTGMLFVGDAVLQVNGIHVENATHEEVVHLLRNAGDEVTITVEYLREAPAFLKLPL

AHNAK1, Q09666, sequence (Q09666 4-100): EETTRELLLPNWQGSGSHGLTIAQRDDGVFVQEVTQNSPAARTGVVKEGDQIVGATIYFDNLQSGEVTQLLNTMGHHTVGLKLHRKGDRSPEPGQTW

pKd (AHNAK1, Q09666): below the threshold
pKd (APBA2_1, Q99767): below the threshold
pKd (ARHGEF12, Q9NZN5-2): 4.19
pKd (DFNB31_1, Q9P202): below the threshold
pKd (DLG1_2, Q12959): 3.86
pKd (DLG2_3, Q15700): below the threshold
pKd (DLG4_3, P78352): below the threshold
pKd (DVL3, Q92997): 3.63
pKd (GRIP1_2, Q9Y3R0): below the threshold
pKd (GRIP1_3, Q9Y3R0): below the threshold
pKd (Inadl_10, Q8NI35): below the threshold
pKd (Inadl_4, Q8NI35): below the threshold
pKd (LRRC7, Q96NW7): below the threshold
pKd (MAGI2_3, Q86UL8): below the threshold
pKd (MAGI2_5, Q86UL8): below the threshold
pKd (MPDZ_12, O75970): below the threshold
pKd (NHERF4_2, Q86UT5): below the threshold
pKd (PARD3_3, Q8TEW0): below the threshold
pKd (PDZRN3_1, Q9UPQ7): below the threshold
pKd (RADIL, Q96JH8): 5.17
pKd (RHPN1, Q8TCX5): below the threshold
pKd (SCRIB_1, Q14160): below the threshold
pKd (SCRIB_3, Q14160): below the threshold
pKd (SNTB1, Q13884): below the threshold
pKd (SNTG2, Q9NY99): below the threshold
B1: CLDN8, P56748 (peptide)
chain: PSVYSRSQYV

pKd (AHNAK1, Q09666): below the threshold
pKd (APBA2_1, Q99767): below the threshold
pKd (ARHGEF12, Q9NZN5-2): 4.68
pKd (DFNB31_1, Q9P202): 4.28
pKd (DLG1_2, Q12959): 4.19
pKd (DLG2_3, Q15700): 3.95
pKd (DLG4_3, P78352): 3.95
pKd (DVL3, Q92997): below the threshold
pKd (GRIP1_2, Q9Y3R0): below the threshold
pKd (GRIP1_3, Q9Y3R0): below the threshold
pKd (Inadl_10, Q8NI35): below the threshold
pKd (Inadl_4, Q8NI35): below the threshold
pKd (LRRC7, Q96NW7): below the threshold
pKd (MAGI2_3, Q86UL8): below the threshold
pKd (MAGI2_5, Q86UL8): 3.72
pKd (MPDZ_12, O75970): below the threshold
pKd (NHERF4_2, Q86UT5): below the threshold
pKd (PARD3_3, Q8TEW0): below the threshold
pKd (PDZRN3_1, Q9UPQ7): 4.99
pKd (RADIL, Q96JH8): below the threshold
pKd (RHPN1, Q8TCX5): 4.64
pKd (SCRIB_1, Q14160): 5.26
pKd (SCRIB_3, Q14160): 5.13
pKd (SNTB1, Q13884): 4.67
pKd (SNTG2, Q9NY99): 4.66
B2: MCC, P23508 (peptide)
chain: SRPHTNETSL

pKd (AHNAK1, Q09666): below the threshold
pKd (APBA2_1, Q99767): below the threshold
pKd (ARHGEF12, Q9NZN5-2): 4.95
pKd (DFNB31_1, Q9P202): 3.85
pKd (DLG1_2, Q12959): 3.59
pKd (DLG2_3, Q15700): below the threshold
pKd (DLG4_3, P78352): below the threshold
pKd (DVL3, Q92997): 4.54
pKd (GRIP1_2, Q9Y3R0): below the threshold
pKd (GRIP1_3, Q9Y3R0): below the threshold
pKd (Inadl_10, Q8NI35): 4.63
pKd (Inadl_4, Q8NI35): below the threshold
pKd (LRRC7, Q96NW7): 4.31
pKd (MAGI2_3, Q86UL8): 3.48
pKd (MAGI2_5, Q86UL8): 3.94
pKd (MPDZ_12, O75970): 4.9
pKd (NHERF4_2, Q86UT5): below the threshold
pKd (PARD3_3, Q8TEW0): 4.78
pKd (PDZRN3_1, Q9UPQ7): 3.76
pKd (RADIL, Q96JH8): 5.57
pKd (RHPN1, Q8TCX5): 4.64
pKd (SCRIB_1, Q14160): 4.63
pKd (SCRIB_3, Q14160): 5.14
pKd (SNTB1, Q13884): 3.79
pKd (SNTG2, Q9NY99): below the threshold
B3: WWTR1, Q9GZV5 (peptide)
chain: NKSEPFLTWL

— PMC9482650, “Quantitative fragmentomics allow affinity mapping of interactomes” (Nature Communications, 2022)
